Measurements: IntAct's records for PubMed 12571249

B1: Syndecan-4 (Rattus norvegicus (Rat)), P34901 (parent)
chain: MAPVCLFAPLLLLLLGGFPVAPGESIRETEVIDPQDLLEGRYFSGALPDDEDAGGLEQDSDFELSGSGDLDDTEEPRTFPEVISPLVPLDNHIPENAQPGIRVPSEPKELEENEVIPKRVPSDVGDDDVSNKVSMSSTSQGSNIFERTEVLAALIVGGVVGILFAVFLILLLVYRMKKKDEGSYDLGKKPIYKKAPTNEFYA

Variants of: B1
Settings: with kpca_human PRKCA

Variant | effect of a mutation on the interaction
MAPVCLFAPLLLLLLGGFPVAPGESIRETEVIDPQDLLEGRYFSGALPDDEDAGGLEQDSDFELSGSGDLDDTEEPRTFPEVISPLVPLDNHIPENAQPGIRVPSEPKELEENEVIPKRVPSDVGDDDVSNKVSMSSTSQGSNIFERTEVLAALIVGGVVGILFAVFLILLLVYRMKKKDEGSYDLGKKPIFKKAPTNEFYA [Y192F] | disrupting interaction
